Patent US20190169241A1 (BOARD OF TRUSTEES OF THE UNIVERSITY OF ILLINOIS, published 2019)
Values belong to the binder of their own block, whether it stands above or below them. No end group written: not given here.

Legend:
[1] = molecular target: T1, vascular endothelial growth factor receptor 2 (VEGFR2), endogenous, from HUVEC lysates (human, UniProt P35968 20-1356); test: pull-down of endogenous VEGFR2 from HUVEC lysate with the recombinant truncation on beads, western blot with anti-VEGFR2 antibody
T1 construct: Endogenous receptor from cell lysate, detected by western blot with anti-VEGFR2 antibody or by mass spectrometry; also called Flk-1
T1 sequence (P35968 20-1356 limits assumed): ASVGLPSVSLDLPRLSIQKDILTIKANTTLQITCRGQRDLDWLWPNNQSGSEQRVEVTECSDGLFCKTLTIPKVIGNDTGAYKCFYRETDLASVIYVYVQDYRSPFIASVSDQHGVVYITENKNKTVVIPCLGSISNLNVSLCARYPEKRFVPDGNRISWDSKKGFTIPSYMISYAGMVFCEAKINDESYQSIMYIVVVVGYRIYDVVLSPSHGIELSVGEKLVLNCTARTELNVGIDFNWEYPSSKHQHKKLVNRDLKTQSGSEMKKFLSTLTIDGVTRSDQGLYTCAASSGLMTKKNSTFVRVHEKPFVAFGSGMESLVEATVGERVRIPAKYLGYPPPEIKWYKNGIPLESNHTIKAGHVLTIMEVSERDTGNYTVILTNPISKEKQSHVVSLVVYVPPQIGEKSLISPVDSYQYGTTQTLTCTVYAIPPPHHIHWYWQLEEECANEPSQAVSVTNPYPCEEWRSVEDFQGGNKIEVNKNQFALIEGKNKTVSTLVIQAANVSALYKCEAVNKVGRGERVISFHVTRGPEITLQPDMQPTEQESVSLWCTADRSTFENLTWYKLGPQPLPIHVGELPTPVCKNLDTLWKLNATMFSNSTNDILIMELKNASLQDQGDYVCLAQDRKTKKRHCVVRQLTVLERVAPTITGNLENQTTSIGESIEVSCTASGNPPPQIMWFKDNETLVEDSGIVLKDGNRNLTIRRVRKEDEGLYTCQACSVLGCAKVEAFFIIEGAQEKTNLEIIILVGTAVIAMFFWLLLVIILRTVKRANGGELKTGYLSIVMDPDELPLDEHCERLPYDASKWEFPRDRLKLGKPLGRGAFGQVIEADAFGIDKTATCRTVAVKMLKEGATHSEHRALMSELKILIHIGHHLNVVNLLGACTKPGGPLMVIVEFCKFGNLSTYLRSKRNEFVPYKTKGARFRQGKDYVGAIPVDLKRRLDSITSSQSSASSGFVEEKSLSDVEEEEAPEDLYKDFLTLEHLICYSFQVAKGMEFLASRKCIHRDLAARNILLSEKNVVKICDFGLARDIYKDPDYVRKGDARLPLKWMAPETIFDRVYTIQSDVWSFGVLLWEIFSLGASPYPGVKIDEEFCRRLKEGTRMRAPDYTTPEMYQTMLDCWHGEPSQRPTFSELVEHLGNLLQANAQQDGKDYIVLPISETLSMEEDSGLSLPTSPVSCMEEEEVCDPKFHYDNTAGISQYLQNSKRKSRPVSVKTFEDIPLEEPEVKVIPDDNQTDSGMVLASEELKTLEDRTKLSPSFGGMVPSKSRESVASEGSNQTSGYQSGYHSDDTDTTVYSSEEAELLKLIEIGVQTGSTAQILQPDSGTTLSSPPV

[2] = molecular target: T1, vascular endothelial growth factor …; test: pull-down from HUVEC lysate with recombinant protein on beads, anti-VEGFR2 western blot
Excerpt: The DUFs were identified from amino acid sequence similarity on the Pfam database. It has been previously shown that both domains of DUF3694 directly bind recombinant VEGFR2 in vitro (Yamada, et al. (2007) Biochemistry 46:10039-45). […] DUF2 was divided into 3 parts, DUF2A (residues 1111-1167), DUF2B (residues 1168-1216), and DUF2C (residues 1217-1281) and each part was expressed as a recombinant protein in bacteria. VEGFR2 was abundantly expressed in HUVECs; thus, cell lysate from HUVECs was incubated with these recombinant proteins on beads, and VEGFR2 binding was determined using the anti-VEGFR2 antibody.

Tie2 = Tie2 (UniProt Q02763 23-1124, limits assumed); test: pull-down with peptide on streptavidin beads, mass spec analysis
Tie2, sequence (Q02763 23-1124 limits assumed): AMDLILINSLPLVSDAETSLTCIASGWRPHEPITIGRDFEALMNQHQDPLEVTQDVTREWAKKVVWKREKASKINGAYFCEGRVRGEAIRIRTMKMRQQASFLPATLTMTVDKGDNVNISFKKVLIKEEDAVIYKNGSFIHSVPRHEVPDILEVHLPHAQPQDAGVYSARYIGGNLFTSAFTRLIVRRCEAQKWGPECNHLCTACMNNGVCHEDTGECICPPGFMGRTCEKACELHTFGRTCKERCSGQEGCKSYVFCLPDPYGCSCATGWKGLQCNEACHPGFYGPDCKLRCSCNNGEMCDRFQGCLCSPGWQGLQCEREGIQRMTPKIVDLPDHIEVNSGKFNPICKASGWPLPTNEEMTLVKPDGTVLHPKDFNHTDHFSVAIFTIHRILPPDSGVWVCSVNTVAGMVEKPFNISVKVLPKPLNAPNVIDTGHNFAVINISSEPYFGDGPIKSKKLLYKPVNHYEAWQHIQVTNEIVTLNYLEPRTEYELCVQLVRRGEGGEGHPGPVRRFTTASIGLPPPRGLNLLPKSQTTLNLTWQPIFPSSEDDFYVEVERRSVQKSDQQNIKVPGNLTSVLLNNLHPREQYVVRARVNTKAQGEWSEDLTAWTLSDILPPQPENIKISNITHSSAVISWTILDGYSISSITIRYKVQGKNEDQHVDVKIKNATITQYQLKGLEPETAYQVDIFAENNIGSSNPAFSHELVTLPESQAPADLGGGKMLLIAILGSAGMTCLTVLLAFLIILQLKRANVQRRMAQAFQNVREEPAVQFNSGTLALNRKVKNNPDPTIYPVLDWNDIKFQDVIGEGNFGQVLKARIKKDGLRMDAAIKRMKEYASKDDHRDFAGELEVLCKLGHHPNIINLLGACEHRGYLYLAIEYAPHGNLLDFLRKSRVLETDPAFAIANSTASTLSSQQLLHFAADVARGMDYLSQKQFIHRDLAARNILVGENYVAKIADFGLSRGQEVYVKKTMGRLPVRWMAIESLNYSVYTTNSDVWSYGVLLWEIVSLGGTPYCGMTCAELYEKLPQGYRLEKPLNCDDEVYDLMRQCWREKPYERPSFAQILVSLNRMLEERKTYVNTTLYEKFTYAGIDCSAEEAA

Par1 = molecular target: T2, Par1 (UniProt P25116 22-425, limits assumed); test: as above
T2 sequence (looked up): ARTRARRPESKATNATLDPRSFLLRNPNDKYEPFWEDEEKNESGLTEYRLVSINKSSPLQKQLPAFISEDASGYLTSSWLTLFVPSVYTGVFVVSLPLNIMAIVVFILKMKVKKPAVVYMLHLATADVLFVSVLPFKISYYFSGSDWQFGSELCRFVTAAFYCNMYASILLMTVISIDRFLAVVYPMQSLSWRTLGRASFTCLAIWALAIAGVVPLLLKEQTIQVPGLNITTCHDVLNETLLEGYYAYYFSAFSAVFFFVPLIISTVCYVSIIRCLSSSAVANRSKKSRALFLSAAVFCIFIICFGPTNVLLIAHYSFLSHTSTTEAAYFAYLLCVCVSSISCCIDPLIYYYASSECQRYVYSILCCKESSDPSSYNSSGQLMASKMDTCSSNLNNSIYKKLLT

[3] = molecular target: T3, VEGFR2, recombinant cytosolic domain (Fisher Scientific) (UniProt P35968 789-1356, limits assumed); test: SPR (BIACORE), peptide on avidin-coated chip, recombinant cytosolic domain as analyte
T3 construct: domain: cytosolic domain; Analyte in the BIACORE experiment
T3 sequence (P35968 789-1356 limits assumed): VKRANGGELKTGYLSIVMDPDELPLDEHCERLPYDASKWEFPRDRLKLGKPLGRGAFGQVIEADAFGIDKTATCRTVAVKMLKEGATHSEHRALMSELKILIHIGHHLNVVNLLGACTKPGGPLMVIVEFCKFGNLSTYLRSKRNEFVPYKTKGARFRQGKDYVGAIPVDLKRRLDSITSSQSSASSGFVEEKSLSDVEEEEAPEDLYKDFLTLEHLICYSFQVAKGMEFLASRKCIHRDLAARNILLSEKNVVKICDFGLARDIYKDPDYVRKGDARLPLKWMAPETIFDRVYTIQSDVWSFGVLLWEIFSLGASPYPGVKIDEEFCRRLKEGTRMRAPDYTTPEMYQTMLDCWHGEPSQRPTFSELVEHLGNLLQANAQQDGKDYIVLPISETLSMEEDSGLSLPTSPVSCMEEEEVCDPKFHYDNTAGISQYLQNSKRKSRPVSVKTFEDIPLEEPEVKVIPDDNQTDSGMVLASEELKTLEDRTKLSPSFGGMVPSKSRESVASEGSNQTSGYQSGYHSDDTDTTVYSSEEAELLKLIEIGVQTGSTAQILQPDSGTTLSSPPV

[4] = molecular target: T1, vascular endothelial growth factor …; test: pull-down from HUVEC lysates, peptide on streptavidin beads
[5] = molecular target: PDGFRβ, endogenous, found in the pull-down by mass spectrometry (UniProt P09619 33-1106, limits assumed); test: pull-down with peptide on streptavidin beads, mass spec analysis
PDGFRβ, endogenous, found in the pull-down by mass spectrometry, sequence (P09619 33-1106 limits assumed): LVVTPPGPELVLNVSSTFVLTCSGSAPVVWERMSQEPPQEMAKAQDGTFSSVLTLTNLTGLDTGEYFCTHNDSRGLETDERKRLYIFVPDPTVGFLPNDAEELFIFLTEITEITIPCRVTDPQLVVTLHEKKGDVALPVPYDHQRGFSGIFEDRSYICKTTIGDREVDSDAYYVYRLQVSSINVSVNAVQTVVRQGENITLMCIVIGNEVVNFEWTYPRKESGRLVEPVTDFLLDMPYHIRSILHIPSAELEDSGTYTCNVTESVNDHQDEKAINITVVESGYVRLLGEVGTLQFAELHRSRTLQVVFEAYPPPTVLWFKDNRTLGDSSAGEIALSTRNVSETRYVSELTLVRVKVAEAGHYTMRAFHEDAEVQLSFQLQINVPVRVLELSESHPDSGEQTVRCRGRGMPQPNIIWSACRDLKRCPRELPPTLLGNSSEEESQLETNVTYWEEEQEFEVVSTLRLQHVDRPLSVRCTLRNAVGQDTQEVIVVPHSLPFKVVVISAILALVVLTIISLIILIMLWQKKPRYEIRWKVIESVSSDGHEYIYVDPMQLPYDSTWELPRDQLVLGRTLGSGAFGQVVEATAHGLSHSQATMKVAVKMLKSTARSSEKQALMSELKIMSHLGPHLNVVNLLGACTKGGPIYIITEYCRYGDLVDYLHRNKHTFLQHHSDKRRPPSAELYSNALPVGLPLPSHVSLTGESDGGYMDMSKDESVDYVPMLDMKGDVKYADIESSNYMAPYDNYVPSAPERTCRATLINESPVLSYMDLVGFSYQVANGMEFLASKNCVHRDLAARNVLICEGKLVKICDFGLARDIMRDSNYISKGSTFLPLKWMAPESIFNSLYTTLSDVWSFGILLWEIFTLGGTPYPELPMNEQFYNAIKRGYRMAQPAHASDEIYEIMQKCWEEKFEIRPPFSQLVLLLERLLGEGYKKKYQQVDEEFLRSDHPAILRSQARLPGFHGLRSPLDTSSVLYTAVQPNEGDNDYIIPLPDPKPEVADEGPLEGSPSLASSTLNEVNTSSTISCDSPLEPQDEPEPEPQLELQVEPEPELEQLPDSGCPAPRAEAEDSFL

[6] = molecular target: EGFR, endogenous, found in the pull-down by mass spectrometry (UniProt P00533 25-1210, limits assumed); test: as above
[7] = molecular target: PDGFRα, endogenous, found in the pull-down by mass spectrometry (UniProt P16234 24-1089, limits assumed); test: as above

B1: C4 (peptide, UniProt Q9NQT8 1226-1251, looked up)
single chain: SWDSAVHGCPQLSRGTPVDERLFLIV
notes: recombinant truncated mutant expressed in bacteria with His-tag and S-tag; the sheet prints only 'C4'; also called DUF2C4; DUF C4 (1226-1251 aa)
- binding result [1]: no binding

B5: C1 (peptide, UniProt Q9NQT8 1202-1240, looked up)
single chain: GEEEEEFFELQIVKQHDGEVKAEASWDSAVHGCPQLSRG
notes: recombinant truncated mutant expressed in bacteria with His-tag and S-tag; the sheet prints only 'C1'; also called DUF2C1; DUF C1 (1202-1240 aa)
- binding result [1]: no binding

Binder: RVRASELRSFSRMLAGDPGCSPG (peptide, UniProt Q9NQT8 1650-1672, looked up, also: biotin-tag (position not given here), range 1650-1672) [CT23 (residues 1650 to 1672 of KIF13B), synthetic negative control peptide with a biotin-tag]
- binding result [4]: no binding
- binding result [5]: no binding
- binding result [6]: no binding
- binding result [7]: no binding
- binding result [3]: no binding

Further lines, results first:

- binding result [2]: no binding
B2: DUF2A (residues 1111-1167 of KIF13B), recombinant protein from bacteria (other, human, UniProt Q9NQT8 1111-1167, looked up)
chain: QKLVSKRDKTEDDADREAQLLEMRLTLTEERNAVMVPSAGSGIPGAPAEWTPVPGME
notes: range 1111-1167; not shown: His-tag and S-tag

- binding result [2]: no binding
B3: DUF2B (residues 1168-1216 of KIF13B), recombinant protein from bacteria (other, human, UniProt Q9NQT8 1168-1216, looked up)
chain: THIPVIFLDLNADDFSSQDNLDDPEAGGWDATLTGEEEEEFFELQIVKQ
notes: range 1168-1216; not shown: His-tag and S-tag

- binding result [1]: no binding
B4: C7 (peptide, not shown: small tags and cut ends)
peptide: ADMQLVLRKRICVNVHGRQGF
notes: the sheet prints only 'C7'; also called DUF2C7; DUF C7 (1261-1281 aa)

- binding result (Tie2): no binding
- binding result (Par1): no binding
- Kd [3]: 5.5 nM
B6: Biotin-DUF2C5 peptide (synthetic, residues 1238-1260 of KIF13B with a biotin-tag) (peptide)
peptide: SRGTPVDERLFLIVRVTVQLSHP
modifications: also: biotin-tag (position not given here)
notes: Immobilised on streptavidin beads (pull-down, mass spectrometry) or on an avidin-coated BIACORE chip
